Measured values reported in publication PMC7913765, “Dynamics of the HD regulatory subdomain of PARP-1; substrate access and allostery in PARP activation and inhibition”.

Assays:
Settings in all cases: protein: recombinant; tags: N-terminal 6His-6Lys tag, TEV site; label: biotin (internal dT, streptavidin chip); dumbbell of two hairpins with T7 loops, nick between the 5' and 3' ends; stems 13 and 12 bp
PARP-1 full-length [1] = molecular target: T1, PARP-1 full-length (human, UniProt P09874 2-1014); test: SPR; no inhibitor; SPR (Biacore 8K): 20 mM HEPES, 150 mM NaCl, 1 mM TCEP, 0.05% Tween-20, 1% (v/v) (component not given), pH not stated, 25 C; PARP-1 0.078-20 nM; n = 6
T1 sequence (P09874 2-1014): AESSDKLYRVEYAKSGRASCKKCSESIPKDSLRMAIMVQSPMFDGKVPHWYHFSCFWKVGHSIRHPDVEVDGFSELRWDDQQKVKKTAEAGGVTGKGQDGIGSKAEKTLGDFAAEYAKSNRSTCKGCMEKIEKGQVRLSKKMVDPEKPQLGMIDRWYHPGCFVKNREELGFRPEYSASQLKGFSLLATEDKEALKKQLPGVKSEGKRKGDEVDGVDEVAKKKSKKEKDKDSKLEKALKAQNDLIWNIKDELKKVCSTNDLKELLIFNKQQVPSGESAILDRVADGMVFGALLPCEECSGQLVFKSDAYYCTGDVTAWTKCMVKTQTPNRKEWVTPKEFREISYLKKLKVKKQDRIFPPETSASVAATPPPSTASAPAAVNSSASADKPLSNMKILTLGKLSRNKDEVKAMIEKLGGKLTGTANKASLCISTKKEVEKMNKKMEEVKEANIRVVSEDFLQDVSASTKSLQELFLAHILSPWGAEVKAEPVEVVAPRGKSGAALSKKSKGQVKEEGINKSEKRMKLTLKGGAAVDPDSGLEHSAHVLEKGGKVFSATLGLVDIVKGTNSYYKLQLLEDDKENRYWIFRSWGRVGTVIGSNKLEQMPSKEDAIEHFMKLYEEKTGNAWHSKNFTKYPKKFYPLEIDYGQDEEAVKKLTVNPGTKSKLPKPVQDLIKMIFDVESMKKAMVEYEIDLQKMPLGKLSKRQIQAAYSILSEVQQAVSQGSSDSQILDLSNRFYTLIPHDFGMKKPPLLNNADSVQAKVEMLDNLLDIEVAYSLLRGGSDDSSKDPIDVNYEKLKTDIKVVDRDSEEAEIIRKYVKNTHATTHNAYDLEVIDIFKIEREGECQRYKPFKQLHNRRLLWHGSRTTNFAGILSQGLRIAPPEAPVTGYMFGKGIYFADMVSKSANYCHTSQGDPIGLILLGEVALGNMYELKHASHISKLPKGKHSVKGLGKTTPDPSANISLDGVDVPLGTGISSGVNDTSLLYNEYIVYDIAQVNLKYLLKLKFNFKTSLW

PARP-1 full-length [2] = molecular target: T1, PARP-1 full-length; test: SPR; EB-47 (100 mM [sic]); SPR (Biacore 8K): 20 mM HEPES, 150 mM NaCl, 1 mM TCEP, 0.05% Tween-20, 1% (v/v) (component not given), pH not stated, 25 C; PARP-1 0.078-20 nM; n = 6
PARP-1 full-length [3] = molecular target: T1, PARP-1 full-length; test: SPR; olaparib (10 mM [sic]); SPR (Biacore 8K): 20 mM HEPES, 150 mM NaCl, 1 mM TCEP, 0.05% Tween-20, 1% (v/v) (component not given), pH not stated, 25 C; PARP-1 0.078-20 nM; n = 6
PARP-1 full-length [4] = molecular target: T1, PARP-1 full-length; test: SPR; veliparib (10 mM [sic]); SPR (Biacore 8K): 20 mM HEPES, 150 mM NaCl, 1 mM TCEP, 0.05% Tween-20, 1% (v/v) (component not given), pH not stated, 25 C; PARP-1 0.078-20 nM; n = 6

B1: biotinylated hairpin DNA (dumbbell single-strand break model) (structured_DNA)
DNA: GACAACCCGGCGCTTTTTTTGCGCCGGGTTGTCTGGCCCAGTTCGTTTTTTTCGAACTGGGCCA
modifications: biotin-dT at position 17 (written as T; between S1 and S2)
Kd (PARP-1 full-length [1]): 2.1 nM
Kd (PARP-1 full-length [2]): 0.13 nM
Kd (PARP-1 full-length [3]): 2.1 nM
Kd (PARP-1 full-length [4]): 4.2 nM
